Reference: US8173771B2, “Humanin receptor or humanin-like polypeptide receptor” (Keio Univeristy, priority 2005, dated 2012)

Biological target: T1, G-CSFR/gp130 chimera proteins (Homo sapiens, UniProt P40189+Q99062)
T1 construct: the extracellular domain of the human G-CSF receptor fused to the full transmembrane domain; expressed in transfected cells; host or cells: F11 cells
T1 sequence (Q99062+P40189 with tags, fused parts or gaps): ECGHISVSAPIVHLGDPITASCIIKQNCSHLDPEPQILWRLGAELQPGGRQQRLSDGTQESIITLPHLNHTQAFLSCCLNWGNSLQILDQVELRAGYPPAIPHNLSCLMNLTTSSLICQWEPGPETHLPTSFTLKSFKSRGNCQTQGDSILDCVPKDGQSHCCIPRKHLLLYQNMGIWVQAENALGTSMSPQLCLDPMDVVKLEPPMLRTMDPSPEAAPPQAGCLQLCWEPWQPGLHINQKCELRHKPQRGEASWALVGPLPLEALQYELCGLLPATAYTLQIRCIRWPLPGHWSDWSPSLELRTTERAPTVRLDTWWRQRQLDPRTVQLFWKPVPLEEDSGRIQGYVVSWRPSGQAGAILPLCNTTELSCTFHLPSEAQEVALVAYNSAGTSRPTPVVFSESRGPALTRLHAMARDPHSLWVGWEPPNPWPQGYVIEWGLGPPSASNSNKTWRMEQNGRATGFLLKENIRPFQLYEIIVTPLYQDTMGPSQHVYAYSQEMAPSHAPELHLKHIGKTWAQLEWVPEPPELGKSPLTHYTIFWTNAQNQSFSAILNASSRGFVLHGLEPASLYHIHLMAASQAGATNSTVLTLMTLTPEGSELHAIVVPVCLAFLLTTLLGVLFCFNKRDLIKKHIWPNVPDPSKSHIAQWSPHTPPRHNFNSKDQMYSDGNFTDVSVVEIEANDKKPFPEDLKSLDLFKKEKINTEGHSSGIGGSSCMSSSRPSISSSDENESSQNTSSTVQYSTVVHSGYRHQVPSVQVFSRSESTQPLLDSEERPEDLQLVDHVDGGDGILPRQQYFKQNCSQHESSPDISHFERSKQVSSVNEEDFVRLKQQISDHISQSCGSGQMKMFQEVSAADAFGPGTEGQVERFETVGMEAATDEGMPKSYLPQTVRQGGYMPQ
Test: G-CSF stimulation of G-CSFR/gp130 chimera proteins in F11 cells, cell mortality by Trypan blue exclusion
Assay type: cell-based
Settings: 100 nM; G-277 expressed
Description: B) F11 cells were transfected with 0.5 μg of the pcDNA3 vector or pcDNA3-APP in association with 0.5 μg of the pEFBos vector or the pEFBos vectors encoding the extracellular domain of the human G-CSF receptor fused to the full transmembrane domain and a C-terminally truncated intracytoplasmic domain of gp130 (named “G-CSFR/gp130”). G-CSFR/gp130 (277) contains the full intracytoplasmic domain of gp130 corresponding to amino acids 1-277, while G-CSFR/gp130 (25), (68), and (133) contain the intracytoplasmic domains corresponding to amino acids 1-25, 1-68, and 1-133, respectively. At 24 hr after transfection, the cells were added with indicated amounts of human G-CSF. Cell mortality was determined by Trypan blue exclusion assay at 72 hr after transfection. The results of immunoblot analysis of the expression of […] are shown in photos.
C) Instead of the pcDNA3-V6421-APP vector, pcDNA3-K595 N/M596L-APP (NL-APP), M146L-PS1 and N141-I-PS2 vectors were used to do the same experiments as in FIG. 2A. The results of immunoblot analysis of the expression of NL-APP, M146L-PS1 and N141-I-PS2 are shown in photos.
D) F11 cells were transfected with 0.5 μg of the pEFBos vector or pEF-G85R-SOD1 in association with 0.5 μg of the pEFBos vector or each pEFBos vector encoding G-CSFR/gp130 (277) or G-CSFR/gp130 (25). At 24 hr after transfection, the cells were added with indicated amounts of human G-CSF. Cell mortality was determined by Trypan blue exclusion assay at 72 hr after transfection. The results of the expression of G85R-SOD1, which were confirmed by the immunoblot analysis, are shown in photos.
Neurohybrid F11 cells and pcDNA3 vectors encoding V642I-APP, K595N/M596L-APP (NL-APP), M146L-PS1, and N141I-PS2 cDNA were prepared as already described (Hashimoto et al, 2000, 2001a, 2003). pCAG-human gp130 and pCAG-human gp130 ED (the extracellular domain of human gp130) were prepared as described (Kumanogoh et al., 1997). pcDNA3 vectors encoding the extracellular domain of the G-CSF receptor fused to the full-length transmembrane domain and various portions of the intracellular domains of human gp130, were prepared as described (Fukada et al, 1996). The intracellular domain of gp130 was C-terminally truncated. A chimera protein named G-277 contained a 277 amino acid-long full intracellular domain of gp130 (SEQ ID NO:35), while G-195, G-133, G-68, and G-25 contained the amino acids 1-195 (SEQ ID NO:36), 1-133 (SEQ ID NO:37), 1-68 (SEQ ID NO:38), and 1-25 (SEQ ID NO:39) intracellular portions, respectively. C-terminally myc-tagged human WSX-1 and myc-tagged mouse CREME9 cDNAs were amplified from human and mouse embryo cDNA (BioChain) by PCR using sets of sense primers and antisense primers: 5′-[…]-3′ (SEQ ID NO:3) and 5′-[…]-3′ (SEQ ID NO:4) for human WSX-1; 5′-[…]-3′ (SEQ ID NO:5); and 5′-[…]-3′ (SEQ ID NO:6) for mouse CREME9. Plasmids encoding C-terminally V5-tagged human CNTF-R (V %-CNTF-R) and rat IL-6R (pUCM18-rat IL-6R) were purchased from Invitrogen and American Culture Collection, respectively. A pEFBos vector comprising familial ALS (FALS) gene G85R-SOD1 was kindly provided by Dr. Shoji Tsuji. Cosmid of human wild […] was constructed by inserting a full-length gp130 into a SwaI site of pAxCAwt (TaKaRa).
The transfection procedures were as described (Hashimoto et al, 2000, 2001a, 2003). F11 cells, seeded at 7×10^4/well in 6-well dishes, were transfected with indicated vectors. Transfection efficiency in these protocols has been determined to be invariably around 70%. At 72 hrs after transfection, the Trypan blue exclusion assay and LDH assay were performed as a cell-death assay and the WST-8 assay was performed as cell-viability assays (Hashimoto et al, 2000, 2001a b, 2003). HN was added to the culture medium usually at 5 hrs after transfection, but in some cases at 24 hrs after transfection.

B1: G-CSF: human G-CSF, ligand stimulating G-CSFR/gp130 chimera proteins (protein, UniProt P09919 31-207, looked up)
Granulocyte …: TPLGPASSLPQSFLLKCLEQVRKIQGDGAALQEKLVSECATYKLCHPEELVLLGHSLGIPWAPLSSCPSQALQLAGCLSQLHSGLFLYQGLLQALEGISPELGPTLDTLQLDVADFATTIWQQMEELGMAPALQPTQGAMPAFASAFQRRAGGVLVASHLQSFLEVSYRVLRHLAQP
prevention of NL-APP-, M146L-PS1-, N141I-PS2-mediated neuronal cell death: prevented | prevention of neuronal cell death induced by V642I-APP: prevented
